How the values were obtained:
cynomolgus monkey CD3 = molecular target: T1, cynomolgus monkey CD3 (cynomolgus monkey, UniProt Q95LI5 22-198); assay: not described at this place; the sentence refers to 'example 2'
T1 construct: whole, on cells; also called cynomolgus CD3

human CD3 [1] = molecular target: T2, human CD3 (human, UniProt P07766 23-207); assay: flow cytometry based Intellicyt assay on human pan T cells, MFI, 4PL fit; lower end of the printed range 108-112 nM
T2 construct: also called CD3 epsilon; CD3 on primary human T cells
T2 sequence (P07766 23-207 limits assumed): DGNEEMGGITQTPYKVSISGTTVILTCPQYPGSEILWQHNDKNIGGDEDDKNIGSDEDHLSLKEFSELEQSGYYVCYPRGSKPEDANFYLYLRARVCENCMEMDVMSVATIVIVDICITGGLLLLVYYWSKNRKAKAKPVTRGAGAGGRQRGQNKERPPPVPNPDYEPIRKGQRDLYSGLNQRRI
Method: The affinity of CD3_spFv-1 to T cells was measured by flow cytometry based Intellicyt assay. Briefly, pan T cells were isolated from PBMC from healthy donors. Cells were incubated with titrating amounts test molecules for 1 hour, then washed. […] Cells were then washed and resuspended in 0.10% pluronic acid containing Sytox Green, then immediately analyzed in a flow cytometer. Median fluorescent intensity (MFI) was recorded (on RL1-A). The log 10 of the molecule concentration was plotted against the MFI. Best fit curves were evaluated using a 4PL algorithm (log(agonist) vs. response—Variable slope) in GraphPad Prism 9.0.

[2] = molecular target: T3, human GUCY2C (guanylyl cyclase C) (human, UniProt P25092 24-1073); assay: flow cytometry on CHO-huGUCY2C cells
T3 construct: also called huGUCY2C; GC-C
T3 sequence (P25092 other isoform, or with tags, fused parts or gaps limits assumed): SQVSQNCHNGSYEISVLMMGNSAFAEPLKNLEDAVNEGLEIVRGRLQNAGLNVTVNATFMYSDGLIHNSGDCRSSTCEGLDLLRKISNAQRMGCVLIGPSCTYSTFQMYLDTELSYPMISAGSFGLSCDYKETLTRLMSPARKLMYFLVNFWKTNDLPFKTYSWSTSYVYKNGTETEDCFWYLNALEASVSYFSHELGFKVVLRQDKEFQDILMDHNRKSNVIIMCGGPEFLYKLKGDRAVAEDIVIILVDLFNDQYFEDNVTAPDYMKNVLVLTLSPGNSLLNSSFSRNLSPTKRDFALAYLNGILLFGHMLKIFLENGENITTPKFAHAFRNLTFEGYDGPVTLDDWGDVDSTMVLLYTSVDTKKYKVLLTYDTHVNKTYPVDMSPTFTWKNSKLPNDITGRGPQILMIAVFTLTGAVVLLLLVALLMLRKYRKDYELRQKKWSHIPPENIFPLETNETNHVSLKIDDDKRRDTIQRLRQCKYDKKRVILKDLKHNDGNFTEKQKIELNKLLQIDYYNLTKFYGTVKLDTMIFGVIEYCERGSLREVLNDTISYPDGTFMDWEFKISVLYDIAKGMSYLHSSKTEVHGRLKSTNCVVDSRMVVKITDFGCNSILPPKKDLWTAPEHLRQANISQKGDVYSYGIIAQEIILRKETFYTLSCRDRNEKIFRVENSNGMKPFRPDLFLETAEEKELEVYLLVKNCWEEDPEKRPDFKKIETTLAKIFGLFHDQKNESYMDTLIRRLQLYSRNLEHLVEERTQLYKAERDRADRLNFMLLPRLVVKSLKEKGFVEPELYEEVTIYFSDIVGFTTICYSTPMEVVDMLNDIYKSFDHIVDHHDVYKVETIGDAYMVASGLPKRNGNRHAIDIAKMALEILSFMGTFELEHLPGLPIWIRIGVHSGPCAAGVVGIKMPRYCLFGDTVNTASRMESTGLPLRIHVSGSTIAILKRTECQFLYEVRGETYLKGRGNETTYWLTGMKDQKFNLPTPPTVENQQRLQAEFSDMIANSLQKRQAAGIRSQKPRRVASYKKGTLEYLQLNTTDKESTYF
Method: Three (3) cell lines, Chinese hamster ovary (CHO) cell line, CHO transfected with cyno GUCY2C, and CHO transfected with human GUCY2C, were incubated with a titrating dose of GUCY2C_mAb for 60 min at 37° C., washed twice, then incubated with AF647 labeled anti human secondary for 30 minutes at 4° C. Cells were washed twice again, resuspended and acquired in a flow cytometer. Specific antibody binding was assessed in the RL1H channel for each cell line. Data presented as signal/background where background is secondary only.

[3] = molecular target: T3, human GUCY2C (guanylyl cyclase C); assay: cell-based or functional assay
[4] = molecular target: T3, human GUCY2C (guanylyl cyclase C); assay: flow cytometry on T84 cells
Method: One hour cell binding studies by flow cytometry were carried out at physiologically relevant temperature (37° C.) on GUCY2CxCD3 bispecific antibodies (GUCY2CxCD3 biAb-1 and GUCY2CxCD3_biAb-2), known reference GUCY2CxCD3 bispecific antibody (biAb), and Null×CD3 control molecules. The goal was to characterize and quantify specific, cell binding for GUCY2CxCD3_biAb-1 and 2. […] Maximum binding of GUCY2CxCD3 biAb-1 and 2 was higher than reference biAb.

human CD3 [5] = molecular target: T2, human CD3; assay: flow cytometry on primary T cells

T1 sequence (Q95LI5 22-198): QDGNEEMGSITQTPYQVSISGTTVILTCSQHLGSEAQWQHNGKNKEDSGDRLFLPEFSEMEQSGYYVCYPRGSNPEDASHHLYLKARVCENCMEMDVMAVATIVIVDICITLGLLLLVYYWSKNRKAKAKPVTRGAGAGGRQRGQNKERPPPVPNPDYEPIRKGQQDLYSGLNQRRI

B1: CD3_spFv-1 (scFv)
scFv: EIVLTQSPATLSASPGERVTLSCSASSSVSYMNWYQQKPGCAPRRWIYDSSKLASGVPARFSGSGSGRDYTLTISSLEPEDFAVYYCQQWSRNPPTFGGGTKVEIKGGGSGGSGGCPPCGGSGGQVQLVQSGAEVKKPGSSVKVSCKASGYTFTRSTMHWVKQAPGQGLEWIGYINPSSAYTNYNQKFQGRVTLTADKSTSTAYMELSSLRSEDTAVYYCASPQVHYDYAGFPYWGCGTLVTVSS
notes: also called CD3 arm of GUCY2CxCD3_biAb-1; anti-CD3 spFv
- binding result (cynomolgus monkey CD3): no binding
- EC50 (human CD3 [1]): 108 to 112 nM

B2: GUCY2C_mAb (antibody, V domains shown)
VH: QVQLQESGPGLVKPSETLSLTCTVSGASISHYYWSWIRRPAGKGLEWIGRIYTSGSTNYNPSLKSRVTVSVDTSKNQFSLKLSSVTAADTAVYYCARDRYTGYFDLWGRGTLVTVSS
VL: not shown
notes: From Ablexis Kappa mice, so a kappa light chain; also called GUCYC2_mAb
- EC50 [2]: 4.6 nM

B3: GUCY2CxCD3_biAb-1 (bispecific antibody, human IgG1, kappa, L234A L235A)
heavy: QVQLQESGPGLVKPSETLSLTCTVSGASISHYYWSWIRRPAGKGLEWIGRIYTSGSTNYNPSLKSRVTVSVDTSKNQFSLKLSSVTAADTAVYYCARDRYTGYFDLWGRGTLVTVSSASTKGPSVFPLAPSSKSTSGGTAALGCLVKDYFPEPVTVSWNSGALTSGVHTFPAVLQSSGLYSLSSVVTVPSSSLGTQTYICNVNHKPSNTKVDKKVEPKSCDKTHTCPPCPAPEAAGGPSVFLFPPKPKDTLMISRTPEVTCVVVSVSHEDPEVKFNWYVDGVEVHNAKTKPREEQYNSTYRVVSVLTVLHQDWLNGKEYKCKVSNKALPAPIEKTISKAKGQPREPQVYTLPPSREEMTKNQVSLSCAVKGFYPSDIAVEWESNGQPENNYKTTPPVLDSDGSFFLVSKLTVDKSRWQQGNVFSCSVMHEALHNRFTQKSLSLSPGK
light: not shown
chain: EIVLTQSPATLSASPGERVTLSCSASSSVSYMNWYQQKPGCAPRRWIYDSSKLASGVPARFSGSGSGRDYTLTISSLEPEDFAVYYCQQWSRNPPTFGGGTKVEIKGGGSGGSGGCPPCGGSGGQVQLVQSGAEVKKPGSSVKVSCKASGYTFTRSTMHWVKQAPGQGLEWIGYINPSSAYTNYNQKFQGRVTLTADKSTSTAYMELSSLRSEDTAVYYCASPQVHYDYAGFPYWGCGTLVTVSSEPKSSDKTHTCPPCPAPEAAGGPSVFLFPPKPKDTLMISRTPEVTCVVVSVSHEDPEVKFNWYVDGVEVHNAKTKPREEQYNSTYRVVSVLTVLHQDWLNGKEYKCKVSNKALPAPIEKTISKAKGQPREPQVYTLPPSREEMTKNQVSLWCLVKGFYPSDIAVEWESNGQPENNYKTTPPVLDSDGSFFLYSKLTVDKSRWQQGNVFSCSVMHEALHNHYTQKSLSLSPGK
notes: HC1/LC1 form the GUCY2C Fab arm (IgG1, L234A/L235A/D265S, hole T366S/L368A/Y407V); HC2 is CD3_spFv-1 (VL2-linker-VH2) fused to IgG1 Fc (L234A/L235A/D265S, knob T366W); also called GUCY2CxCD3 bisp-Ab1; GUCY2C-CD3-bisp-Abl
- Tumor killing EC50 (nM), HT-55 [3]: 0.8 nM
- Tumor killing EC50 (nM), LS1034 [3]: 0.04 nM
- EC50 [4]: 12 nM
- EC50 (human CD3 [5]): 108 nM

— patent US20250066510A1 (Janssen / Centocor, published 2025)
